In this data set the test system is Escherichia coli TOP10. The data set is described as follows: shrunken log2 fold change of peptide-encoding DNA abundance (4.5 h post-induction vs induction); higher = less antimicrobial activity (less host growth inhibition). The note with it: time post-induction: 4.5 h; library: site-saturation at positions 5, 18, 19, 20.

The results in this text go back to the supplement of paper PMC9112550, “Optimization of the antimicrobial peptide Bac7 by deep mutational scanning” (BMC Biology, 2022).
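Further: peptides expressed intracellularly from a pBAD plasmid library in pooled LB shake-flask culture, induced with 0.3% L-arabinose, DNA abundance read by NGS, three biological replicates, DESeq2 with apeglm shrinkage.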

On to RRIRRRPPRLPRPRPRPEHMPRP, for which the “shrunken log2 fold change” value is 0.14.
To RRIRIRPPRLPRPRPRPINIPRP belongs -1.41.
With RRIRWRPPRLPRPRPRPDFFPRP, the “shrunken log2 fold change” value worked out at 0.204.
To RRIRDRPPRLPRPRPRPFMCPRP belongs -0.0266.
To RRIRMRPPRLPRPRPRPSDFPRP belongs -0.764.
To RRIRERPPRLPRPRPRPSTGPRP belongs -0.467; to RRIRWRPPRLPRPRPRPGRLPRP, -0.0636; to RRIRWRPPRLPRPRPRPLIVPRP, 0.0513.
In the case of RRIRARPPRLPRPRPRPWVVPRP, the “shrunken log2 fold change” value was found to be 0.0153.
To RRIRERPPRLPRPRPRPKHVPRP belongs -0.146; to RRIRKRPPRLPRPRPRPVTGPRP, -0.0771.
For RRIRERPPRLPRPRPRPRWRPRP, the “shrunken log2 fold change” value came to 0.706.
To RRIRARPPRLPRPRPRPAQEPRP belongs 0.582.
To RRIRPRPPRLPRPRPRPFRNPRP belongs -0.0931.
Regarding RRIRNRPPRLPRPRPRPWSCPRP, the “shrunken log2 fold change” value was -0.42.
To RRIRYRPPRLPRPRPRPEQFPRP belongs -0.14; to RRIRCRPPRLPRPRPRPGCFPRP, 0.0804.
For the sequence RRIRHRPPRLPRPRPRPAAHPRP, the “shrunken log2 fold change” value turned out to be 0.274.
Turning to RRIRHRPPRLPRPRPRPRDAPRP, the “shrunken log2 fold change” value came to 0.14.
To RRIRVRPPRLPRPRPRPRKGPRP belongs 0.328.
To RRIRGRPPRLPRPRPRPRFYPRP belongs 0.189; to RRIRPRPPRLPRPRPRPPIWPRP, 0.268; to RRIRRRPPRLPRPRPRPLDDPRP, 0.0512.
With RRIRHRPPRLPRPRPRPLPHPRP, the “shrunken log2 fold change” value is -0.162.
To RRIRNRPPRLPRPRPRPNDGPRP belongs -0.00674.
Regarding RRIRTRPPRLPRPRPRPCVFPRP, the “shrunken log2 fold change” value is -0.215.
As to RRIRMRPPRLPRPRPRPVKIPRP, the “shrunken log2 fold change” value came out at 0.514.
To RRIRMRPPRLPRPRPRPFSRPRP belongs 0.0409; to RRIRMRPPRLPRPRPRPATNPRP, 0.499.
To RRIRTRPPRLPRPRPRPMLTPRP belongs 0.21; to RRIRNRPPRLPRPRPRPSICPRP, -0.328; to RRIRDRPPRLPRPRPRPFGFPRP, -0.0238.
To RRIRDRPPRLPRPRPRPADYPRP belongs -0.0418; to RRIRNRPPRLPRPRPRPCVPPRP, -0.00911; to RRIRSRPPRLPRPRPRPIQYPRP, -0.383.
In the case of RRIRLRPPRLPRPRPRPGMTPRP, the “shrunken log2 fold change” value is 0.00528.
To RRIRRRPPRLPRPRPRPYQHPRP belongs -0.983; to RRIRDRPPRLPRPRPRPKIPPRP, -0.355; to RRIRSRPPRLPRPRPRPDLHPRP, -0.0732.
To RRIRYRPPRLPRPRPRPAGHPRP belongs -0.0387.
To RRIRNRPPRLPRPRPRPKLQPRP belongs 0.114.
As to RRIRHRPPRLPRPRPRPNYEPRP, the “shrunken log2 fold change” value is -0.586.
To RRIRPRPPRLPRPRPRPFPSPRP belongs 0.0138.
RRIRERPPRLPRPRPRPYYQPRP: the “shrunken log2 fold change” value amounted to 0.0241.
To RRIRQRPPRLPRPRPRPGMHPRP belongs -0.0509.
To RRIRARPPRLPRPRPRPPRAPRP belongs 0.932; to RRIRHRPPRLPRPRPRPRQEPRP, 0.0426; to RRIRGRPPRLPRPRPRPNHMPRP, -0.0194.
To RRIRFRPPRLPRPRPRPDQQPRP belongs -0.078; to RRIRLRPPRLPRPRPRPYGYPRP, -0.01.
